# In patent US20210138058A1:
# Target: human TLR5 (HEK-Blue hTLR5 reporter cells) (human) (UniProt O60602)
# Assay: cell-based or functional assay
# Chain of UniProt O60602 (O60602 21-858): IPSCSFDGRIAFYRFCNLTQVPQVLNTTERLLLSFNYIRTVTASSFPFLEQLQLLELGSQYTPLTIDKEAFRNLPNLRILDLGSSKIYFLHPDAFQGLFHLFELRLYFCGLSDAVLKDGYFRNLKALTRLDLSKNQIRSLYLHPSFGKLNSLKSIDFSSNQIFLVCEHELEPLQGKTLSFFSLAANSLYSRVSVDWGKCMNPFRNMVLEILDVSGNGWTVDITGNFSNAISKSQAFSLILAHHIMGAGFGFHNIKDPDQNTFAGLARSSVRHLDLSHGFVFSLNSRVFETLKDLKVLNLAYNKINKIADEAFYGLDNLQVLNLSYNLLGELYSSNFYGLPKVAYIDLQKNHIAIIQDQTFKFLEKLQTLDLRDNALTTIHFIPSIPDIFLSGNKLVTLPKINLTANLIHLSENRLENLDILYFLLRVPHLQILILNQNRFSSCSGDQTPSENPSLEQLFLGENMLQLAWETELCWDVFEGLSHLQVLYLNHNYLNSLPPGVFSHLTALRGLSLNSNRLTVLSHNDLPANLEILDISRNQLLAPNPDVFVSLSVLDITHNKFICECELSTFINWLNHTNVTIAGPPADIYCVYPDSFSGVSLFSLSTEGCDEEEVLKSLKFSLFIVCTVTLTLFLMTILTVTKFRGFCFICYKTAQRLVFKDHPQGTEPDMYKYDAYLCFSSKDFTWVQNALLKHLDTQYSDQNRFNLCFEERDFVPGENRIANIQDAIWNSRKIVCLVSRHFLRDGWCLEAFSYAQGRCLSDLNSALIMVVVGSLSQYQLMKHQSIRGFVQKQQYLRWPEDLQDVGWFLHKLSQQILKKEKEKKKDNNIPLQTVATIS
substance,measurement,value
"Recombinant purified flagellin protein FlaAMRx0518 (Enterococcus gallinarum MRx0518 flagellin, N-terminal 6xHis tag) (ligand)",potency of TLR5 response against FlaADSM100110 (HEK-Blue hTLR5 SEAP reporter) (fold against FlaADSM100110),5
